Measured values published in publication doi:10.1101/2021.02.16.431378.
Where “and” joins values, the source holds several entries; their conditions need not be identical. Equal entries are not always repeated. Values belong to the molecule of their own block, whether it stands above or below them.

Legend:
[1] = biological target: N-terminally 6xHis tagged HU-B (histidine-tagged E. coli HU-B) (E. coli K-12 sub-strain MG1655) (UniProt P0ACF4); experiment: SEC
[2] = biological target: N-terminally 6xHis tagged HU-B (histidine-tagged E. coli HU-B) (E. coli K-12 sub-strain MG1655) (UniProt P0ACF4); experiment: cross-linking
[3] = biological target: N-terminally 6xHis tagged HU-B (histidine-tagged E. coli HU-B) (E. coli K-12 sub-strain MG1655) (UniProt P0ACF4); experiment: cross-linking; remark: listed apart in the source
[4] = biological target: N-terminally 6xHis tagged HU-B (histidine-tagged E. coli HU-B) (E. coli K-12 sub-strain MG1655) (UniProt P0ACF4); experiment: SEC; remark: listed apart in the source
[5] = biological target: N-terminally 6xHis tagged HU-B (histidine-tagged E. coli HU-B) (E. coli K-12 sub-strain MG1655) (UniProt P0ACF4); experiment: cross-linking; remark: listed apart in the source
[6] = biological target: N-terminally 6xHis-tagged HU-B co-expressed from pET-Duet-1 (E. coli K-12 sub-strain MG1655) (UniProt P0ACF4); experiment: SEC
[7] = biological target: N-terminally 6xHis tagged HU-A (histidine-tagged E. coli HU-A) (E. coli K-12 sub-strain MG1655) (UniProt P0ACF0); experiment: SEC
[8] = biological target: N-terminally 6xHis tagged HU-A (histidine-tagged E. coli HU-A) (E. coli K-12 sub-strain MG1655) (UniProt P0ACF0); experiment: cross-linking
[9] = biological target: N-terminally 6xHis tagged HU-A (histidine-tagged E. coli HU-A) (E. coli K-12 sub-strain MG1655) (UniProt P0ACF0); experiment: SEC; remark: listed apart in the source
[10] = biological target: N-terminally 6xHis-tagged HU-B co-expressed from pET-Duet-1 (E. coli K-12 sub-strain MG1655) (UniProt P0ACF4); experiment: pull-down
[11] = biological target: T1, TmRITC-labelled histidine-tagged HU-B, P0ACF4; experiment: FRET or BRET
T1 chain: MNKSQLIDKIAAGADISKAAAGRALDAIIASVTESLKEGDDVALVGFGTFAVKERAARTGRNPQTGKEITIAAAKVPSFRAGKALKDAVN

6xHis-HU-A = 6xHis-HU-A (Escherichia coli K-12 MG1655, UniProt P0ACF0 1-90); experiment: EMSA
6xHis-HU-B = biological target: T2, 6xHis-HU-B (Escherichia coli K-12 MG1655, UniProt P0ACF4 1-90); experiment: EMSA
T2 sequence: T1 chain

Molecule: N-terminally 6xHis tagged HU-A (histidine-tagged E. coli HU-A) (from UniProt P0ACF0 1-90) (natural protein)
stoichiometry N [7]: 2
stoichiometry N [8]: 2
stoichiometry N [9]: 2

B1: FITC-labelled histidine-tagged HU-A (protein)
chain: MNKTQLIDVIAEKAELSKTQAKAALESTLAAITESLKEGDAVQLVGFGTFKVNHRAERTGRNPQTGKEIKIAAANVPAFVSGKALKDAVK
percent heterodimers formed after mixing [11]: less than 5%

B2: 4WJ-DNA (Holliday junction) (structured_DNA)
DNA 1: CCCTATAACCCCTGCATTGAATTCCTGTCTGATAA
DNA 2: GTAGTCGTGATAGGTGCAGGGGTTATAGGG
DNA 3: AACAGTAGCTCTTAATTCGAGCTCGCGCCCTATCACGACTA
DNA 4: TTTATCAGACTGGAATTCAAGCGCGAGCTCGAATAAGAGCTACTGT
binding result (6xHis-HU-A): binds
binding result (6xHis-HU-B): binds

The remaining lines, values ahead:

stoichiometry N [1]: 2
stoichiometry N [2]: 2 and 4
stoichiometry N [3]: 2 and 4
stoichiometry N [4]: 2
stoichiometry N [5]: 2 and 4
Molecule: N-terminally 6xHis tagged HU-B (histidine-tagged E. coli HU-B) (from UniProt P0ACF4 1-90) (natural protein)

stoichiometry N [6]: 2
Molecule: N-terminally 6xHis-tagged HU-B co-expressed from pET-Duet-1 (from UniProt P0ACF4 1-90) (natural protein)

heterodimer as percent of the total overexpressed HU population [6]: < 5%
heterodimer as percent of the total overexpressed HU population [10]: < 5%
percent of the total protein purified [10]: < 10%
Molecule: Tag-RFP fused to HU-A without a 6xHis tag (RFP-HU-A) (from UniProt P0ACF0 1-90) (natural protein)
